Data published in patent US20240270821A1, “GIP/GLP1/GCG TRI-RECEPTOR AGONISTS AND USES THEREOF” (priority 2023, published 2024).
Residue numbers refer to the chain shown, from its start.

T1: human GIP receptor (human) (UniProt P48546)
T1 sequence (looked up): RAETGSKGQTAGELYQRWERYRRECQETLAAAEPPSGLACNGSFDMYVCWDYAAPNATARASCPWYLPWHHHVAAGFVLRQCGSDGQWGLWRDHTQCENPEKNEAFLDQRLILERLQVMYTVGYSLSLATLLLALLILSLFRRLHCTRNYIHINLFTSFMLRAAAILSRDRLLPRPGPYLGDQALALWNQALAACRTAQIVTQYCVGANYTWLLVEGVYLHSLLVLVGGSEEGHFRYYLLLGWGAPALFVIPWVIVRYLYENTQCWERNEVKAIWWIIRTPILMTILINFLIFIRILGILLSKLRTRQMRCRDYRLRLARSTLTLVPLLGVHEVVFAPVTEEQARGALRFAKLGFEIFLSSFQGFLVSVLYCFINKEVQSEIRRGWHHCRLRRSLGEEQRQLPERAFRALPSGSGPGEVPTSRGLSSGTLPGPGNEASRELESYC

B1: Example 368 (peptide)
chain: YXQGTXTSDYXIXLDXKAQXXFIEXLLEGGPSSGEPPPS
modifications: synthetic construct; SITE 2: note = 2-Aminoisobutyric Acid; SITE 6: note = alpha-methyl-2-fluoro-L-phenylalanine; SITE 11: note = alpha-methyl-L-serine; SITE 13: note = alpha-methyl-leucine; SITE 16: note = L-ornithine; SITE 17: note = Lysine is chemically modified through conjugation of the epsilon
B2: Example 378 (peptide)
chain: B1 chain with Y10X, L27I, S39E
modifications: synthetic construct; SITE 2: note = 2-Aminoisobutyric Acid; SITE 6: note = alpha-methyl-2-fluoro-L-phenylalanine; SITE 10: note = 3-(4-Pyridyl)-L-alanine; SITE 11: note = alpha-methyl-L-serine; SITE 13: note = alpha-methyl-leucine; SITE 16: note = L-ornithine; SITE 17: note = Lysine is chemically mo
B3: Example 375 (peptide)
chain: B1 chain with Y10X, L27I
modifications: synthetic construct; SITE 2: note = 2-Aminoisobutyric Acid; SITE 6: note = alpha-methyl-2-fluoro-L-phenylalanine; SITE 10: note = 3-(4-Pyridyl)-L-alanine; SITE 11: note = alpha-methyl-L-serine; SITE 13: note = alpha-methyl-leucine; SITE 16: note = L-ornithine; SITE 17: note = Lysine is chemically mo
B4: Example 381 (peptide)
chain: B1 chain with Y1H, X21A, X25Y, S39E
modifications: synthetic construct; SITE 2: note = 2-Aminoisobutyric Acid; SITE 6: note = alpha-methyl-2-fluoro-L-phenylalanine; SITE 11: note = alpha-methyl-L-serine; SITE 13: note = alpha-methyl-leucine; SITE 16: note = L-ornithine; SITE 17: note = Lysine is chemically modified through conjugation of the epsilon
B5: Example 391 (peptide)
chain: B1 chain with X25Y, S39E
modifications: synthetic construct; SITE 2: note = 2-Aminoisobutyric Acid; SITE 6: note = alpha-methyl-L-phenylalanine; SITE 11: note = alpha-methyl-L-serine; SITE 13: note = alpha-methyl-leucine; SITE 16: note = L-ornithine; SITE 17: note = Lysine is chemically modified through conjugation of the epsilon-amino gr
B6: Example 389 (peptide)
chain: B1 chain with I12S, S39E
modifications: synthetic construct; SITE 2: note = 2-Aminoisobutyric Acid; SITE 6: note = alpha-methyl-L-phenylalanine; SITE 11: note = alpha-methyl-L-serine; SITE 13: note = alpha-methyl-leucine; SITE 16: note = L-ornithine; SITE 17: note = Lysine is chemically modified through conjugation of the epsilon-amino gr
B7: Example 377 (peptide)
chain: B1 chain with Y10X, S39E
modifications: synthetic construct; SITE 2: note = 2-Aminoisobutyric Acid; SITE 6: note = alpha-methyl-2-fluoro-L-phenylalanine; SITE 10: note = 3-(4-Pyridyl)-L-alanine; SITE 11: note = alpha-methyl-L-serine; SITE 13: note = alpha-methyl-leucine; SITE 16: note = L-ornithine; SITE 17: note = Lysine is chemically mo
B8: Example 380 (peptide)
chain: B1 chain with Y10X, G34X, S39E
modifications: synthetic construct; SITE 2: note = 2-Aminoisobutyric Acid; SITE 6: note = alpha-methyl-2-fluoro-L-phenylalanine; SITE 10: note = 3-(4-Pyridyl)-L-alanine; SITE 11: note = alpha-methyl-L-serine; SITE 13: note = alpha-methyl-leucine; SITE 16: note = L-ornithine; SITE 17: note = Lysine is chemically mo
B9: Example 390 (peptide)
chain: B1 chain with I12S, X13L, S39E
modifications: synthetic construct; SITE 2: note = 2-Aminoisobutyric Acid; SITE 6: note = alpha-methyl-L-phenylalanine; SITE 11: note = alpha-methyl-L-serine; SITE 16: note = L-ornithine; SITE 17: note = Lysine is chemically modified through conjugation of the epsilon-amino group of the Lysine side chain with (2-[
B10: Example 384 (peptide)
chain: B1 chain with X25Y, E35A
modifications: synthetic construct; SITE 2: note = 2-Aminoisobutyric Acid; SITE 6: note = alpha-methyl-2-fluoro-L-phenylalanine; SITE 11: note = alpha-methyl-L-serine; SITE 13: note = alpha-methyl-leucine; SITE 16: note = L-ornithine; SITE 17: note = Lysine is chemically modified through conjugation of the epsilon
B11: Example 373 (peptide)
chain: B1 chain with Y10X, X11S, G34X, S39E
modifications: synthetic construct; SITE 2: note = 2-Aminoisobutyric Acid; SITE 6: note = alpha-methyl-2-fluoro-L-phenylalanine; SITE 10: note = 3-(4-Pyridyl)-L-alanine; SITE 13: note = alpha-methyl-leucine; SITE 16: note = L-ornithine; SITE 17: note = Lysine is chemically modified through conjugation of the epsil
B12: Example 383 (peptide)
chain: YXQGTXTSDYSIXLDKKAAXAFIEYLIETGPSSGAPPPSEG
modifications: synthetic construct; SITE 2: note = 2-Aminoisobutyric Acid; SITE 6: note = alpha-methyl-2-fluoro-L-phenylalanine; SITE 13: note = alpha-methyl-leucine; SITE 17: note = Lysine is chemically modified through conjugation of the epsilon-amino group of the Lysine side chain with (2-[2-(2-Amino-ethoxy)-et)
B13: Example 34 (peptide)
chain: YXQGTFTSDFSKXLDKKAQXAFIEYLLEAGPSSGAPPPGEG
modifications: not fully specified; Aib, αMeL; acylated Lys; C-terminal amide; synthetic construct; SITE 2: note = 2-Aminoisobutyric Acid; SITE 13: note = alpha-methyl-leucine; SITE 17: note = Lysine is chemically modified through conjugation of the epsilon-amino group of the Lysine side chain with (2-[2-(2-Amino-ethoxy)-ethoxy]-acetyl)-(gamma-Glu)-CO-(CH2) 18-CO2H; SITE 20: n

target: T1, human GIP receptor (human); experiment: cell-based or functional assay

| Binder | Relative cAMP EC50 [nM] | cAMP Rel EC50, nM (1% HSA) [nM] | cAMP Rel EC50 (in the presence of 1% HSA) [nM] |
| --- | --- | --- | --- |
| B1 | 0.0121 | 2.62 |  |
| B2 | 0.0213 | 2.15 |  |
| B3 | 0.0165 | 1.78 |  |
| B4 | 0.0156 | 7.01 |  |
| B5 | 0.0298 | 11.5 |  |
| B6 | 0.0354 | 18.3 |  |
| B7 | 0.0377 | 11.1 |  |
| B8 | 0.0346 | 7.77 |  |
| B9 | 0.122 | 37.8 |  |
| B10 | 0.0152 | 3.63 |  |
| B11 | 0.0183 | 1.97 |  |
| B12 | 0.0406 | 32.3 |  |
| B13 | 0.122 |  | 44.2 |

target: human glucagon receptor (human) (UniProt P47871); experiment: cell-based or functional assay
Sequence (P47871 26-477): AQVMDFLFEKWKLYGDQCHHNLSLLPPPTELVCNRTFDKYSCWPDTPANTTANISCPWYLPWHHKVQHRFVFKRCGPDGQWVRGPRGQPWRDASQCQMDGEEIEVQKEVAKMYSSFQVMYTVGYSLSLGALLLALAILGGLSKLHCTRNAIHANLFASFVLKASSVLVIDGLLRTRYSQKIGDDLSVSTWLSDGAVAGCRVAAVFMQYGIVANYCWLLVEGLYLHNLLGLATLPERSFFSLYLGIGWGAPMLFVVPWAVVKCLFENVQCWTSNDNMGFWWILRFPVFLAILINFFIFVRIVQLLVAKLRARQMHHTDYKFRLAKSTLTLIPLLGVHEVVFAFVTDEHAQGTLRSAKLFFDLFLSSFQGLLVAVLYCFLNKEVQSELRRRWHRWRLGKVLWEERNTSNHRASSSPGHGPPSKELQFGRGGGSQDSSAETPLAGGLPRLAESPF

| Binder | Relative cAMP EC50 [nM] | cAMP Rel EC50, nM (1% HSA) [nM] | cAMP Rel EC50 (in the presence of 1% HSA) [nM] |
| --- | --- | --- | --- |
| B1 | 0.481 | 111 |  |
| B2 | 1.45 | 176 |  |
| B3 | 1.32 | 137 |  |
| B4 | 1.39 | 176 |  |
| B5 | 3.04 | 808 |  |
| B6 | 4.03 | 889 |  |
| B7 | 1.36 | 163 |  |
| B8 | 1.17 | 150 |  |
| B9 | 3.08 | 549 |  |
| B10 | 5.77 | 1730 |  |
| B11 | 4.48 | 666 |  |
| B12 | 1.27 | 530 |  |
| B13 | 3.47 |  | 855 |

target: hGLP-1R (Homo sapiens, UniProt P43220); experiment: cell-based or functional assay
Sequence (P43220 24-463): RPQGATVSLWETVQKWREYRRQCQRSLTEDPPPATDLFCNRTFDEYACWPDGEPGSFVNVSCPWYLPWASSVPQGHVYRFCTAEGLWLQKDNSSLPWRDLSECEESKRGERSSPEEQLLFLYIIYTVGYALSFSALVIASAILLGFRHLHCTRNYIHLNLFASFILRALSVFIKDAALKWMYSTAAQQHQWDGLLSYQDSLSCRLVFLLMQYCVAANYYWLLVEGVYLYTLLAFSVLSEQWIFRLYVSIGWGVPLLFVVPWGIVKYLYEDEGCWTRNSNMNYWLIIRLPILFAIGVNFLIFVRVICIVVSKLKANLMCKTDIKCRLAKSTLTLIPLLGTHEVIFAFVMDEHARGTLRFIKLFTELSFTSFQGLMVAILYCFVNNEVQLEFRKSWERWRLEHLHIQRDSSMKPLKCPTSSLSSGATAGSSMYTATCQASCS

| Binder | Relative cAMP EC50 [nM] | cAMP Rel EC50, nM (1% HSA) [nM] | cAMP Rel EC50 (in the presence of 1% HSA) [nM] |
| --- | --- | --- | --- |
| B1 | 0.242 | 37.4 |  |
| B2 | 0.251 | 18.8 |  |
| B3 | 0.299 | 18 |  |
| B4 | 0.157 | 24.5 |  |
| B5 | 0.199 | 34.4 |  |
| B6 | 0.134 | 18.9 |  |
| B7 | 0.367 | 29.4 |  |
| B8 | 0.354 | 30.6 |  |
| B9 | 0.134 | 19.6 |  |
| B10 | 0.133 | 19.3 |  |
| B11 | 0.392 | 54.5 |  |
| B12 | 0.258 | 79.1 |  |
| B13 | 1.16 |  | 242 |
